The target of one data set is T1, BlaI (Staphylococcus aureus, UniProt P0A042 1-126).
T1 sequence: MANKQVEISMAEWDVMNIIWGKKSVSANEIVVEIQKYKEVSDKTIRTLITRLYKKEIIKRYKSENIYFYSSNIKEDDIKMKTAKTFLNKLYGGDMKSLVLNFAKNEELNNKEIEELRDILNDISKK
Put plainly: fluorescence anisotropy.

The next data set concerns the target T2, MecI (Staphylococcus aureus NRS70 (N315), UniProt P68261 1-123).
T2 sequence: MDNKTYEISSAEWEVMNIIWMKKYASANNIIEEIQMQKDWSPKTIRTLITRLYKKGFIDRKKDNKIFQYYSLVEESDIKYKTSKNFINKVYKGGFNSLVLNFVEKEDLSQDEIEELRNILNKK
As to the kind of experiment: fluorescence anisotropy. (In general: Polarisation of emitted light reports the rotation of a fluorescent probe.)

The data set “MALDI mass spectrometry” concerns the molecule itself. As to the kind of experiment: MALDI mass spectrometry.
The data set “AUC” deals with the molecule itself. Put plainly: AUC.

B1: mec dsDNA (mec operator) (dsDNA)
DNA 1: ATATAAGACTACATTTGTAGTATATTACAAATGTAGTATTT
DNA 2: AAATACTACATTTGTAATATACTACAAATGTAGTCTTATAT
B1: the Kd was 13 ± 6 nM with BlaI and below 10 nM in the data set with MecI.

B2: MecI (natural protein, S. aureus NRS70 (N315), UniProt P68261 1-123, looked up)
chain: T2 sequence
On to B2, for which the “stoichiometry N” value in the data set “MALDI mass spectrometry” turned out to be 5. Further, in “AUC”, the equilibrium dissociation constant (Kd) was 300 ± 30 nM and the “stoichiometry N” value is 2.

In general, Kd refers to the equilibrium constant for the complex coming apart. Higher therefore signals a looser complex. The term stoichiometry N denotes the number of molecules, sites or subunits per partner or assembly.

These data come from publication PMC3971960 (Biochemistry, 2014).
